This note sets out measurements from publication doi:10.1101/2023.05.25.542299.

Assay [1] deals with FITC-labeled 45-mer peptide derived from the C-terminal region of IKKβ. The assay is described as follows: fluorescence polarisation; fluorescence anisotropy binding assay with the FITC-labeled IKKβ 45-mer peptide and NEMO proteins; conditions not told (refs 13, 23).
The target in assay [2] is 45-mer peptide of IKKβ (as used in the CD experiments). Put plainly: circular dichroism (spectra and thermal denaturation with and without ligand); 10 µM NEMO protein with or without equimolar IKKβ 45-mer peptide, incubated 1 h at room temperature; 20 mM sodium phosphate, 500 mM NaCl, pH 7.4; spectra at 25 °C, melt 10 to 70 °C at 222 nm. Background: Circular dichroism is the unequal absorption of left and right circularly polarised light.

Chain of full-length WT NEMO (aa 1–419), bacterially expressed (Q9Y6K9 whole entry, the tested form may be a part): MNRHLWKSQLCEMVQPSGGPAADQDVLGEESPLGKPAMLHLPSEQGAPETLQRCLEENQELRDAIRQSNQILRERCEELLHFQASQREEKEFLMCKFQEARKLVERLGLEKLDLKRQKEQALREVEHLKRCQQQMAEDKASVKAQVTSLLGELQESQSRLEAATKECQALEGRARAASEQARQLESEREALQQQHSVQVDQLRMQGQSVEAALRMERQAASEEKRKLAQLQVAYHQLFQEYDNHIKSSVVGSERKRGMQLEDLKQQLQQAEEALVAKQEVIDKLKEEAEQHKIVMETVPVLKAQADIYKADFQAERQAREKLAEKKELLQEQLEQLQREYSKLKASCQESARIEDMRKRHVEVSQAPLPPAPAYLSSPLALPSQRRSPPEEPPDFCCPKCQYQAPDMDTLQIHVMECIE

The substance “NEMO 1–419 OPTN-IVD, bacterially expressed (from UniProt Q9Y6K9 1-419) (natural protein)” returned a Kd in assay [1] of 33 nM. Besides, the increase in Tm with equimolar peptide in assay [2] stood at 5 °C.

In the case of “full-length WT NEMO (aa 1–419), bacterially expressed (from UniProt Q9Y6K9 1-419) (natural protein)”, in assay [1], the equilibrium dissociation constant (Kd) is 4.7 nM. This substance also came in with an increase in Tm with equimolar peptide in assay [2] of 3 °C.

The term Kd denotes the concentration at which binding is half-saturated.
